Among the data in paper PMC6125123 are ratio of GFP fluorescence intensity on pattern elements over total fluorescence intensity (background 1.1) values, retold here.

This experiment addresses HA-K^b (H-2K^b heavy chain with an N-terminal HA tag, no GFP) (mus musculus). In words: two-hybrid antibody micropattern assay (co-capture on live cells, confocal fluorescence microscopy); HA-tagged bait captured on printed anti-HA (12CA5) micropatterns on glass; GFP-tagged prey read out; co-transduced STF1 cells, 25°C overnight, then shifted to 37°C for 3-4 hr to dissociate …; no peptide.

HA-K^b (H-2K^b heavy chain with an N-terminal HA tag, no GFP) (mus musculus), sequence (P01901 22-369): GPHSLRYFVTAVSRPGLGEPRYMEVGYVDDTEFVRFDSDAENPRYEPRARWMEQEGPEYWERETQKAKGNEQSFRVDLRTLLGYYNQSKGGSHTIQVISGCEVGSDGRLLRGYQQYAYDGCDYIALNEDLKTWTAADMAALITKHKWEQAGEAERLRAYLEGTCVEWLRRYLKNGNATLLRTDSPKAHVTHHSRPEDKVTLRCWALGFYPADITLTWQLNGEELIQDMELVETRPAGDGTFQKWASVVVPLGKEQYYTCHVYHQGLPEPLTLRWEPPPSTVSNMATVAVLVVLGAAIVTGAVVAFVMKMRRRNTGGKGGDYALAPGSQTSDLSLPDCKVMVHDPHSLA

Take “K^b-GFP (H-2K^b heavy chain with GFP fused to the cytoplasmic tail, no HA tag) (natural protein)”: the ratio of GFP fluorescence intensity on pattern elements over total fluorescence intensity (background 1.1) stood at 1.3.
